IntAct's records for PubMed 22918830

B1: Histone deacetylase 3 (Homo sapiens), O15379 (parent)
chain: MAKTVAYFYDPDVGNFHYGAGHPMKPHRLALTHSLVLHYGLYKKMIVFKPYQASQHDMCRFHSEDYIDFLQRVSPTNMQGFTKSLNAFNVGDDCPVFPGLFEFCSRYTGASLQGATQLNNKICDIAINWAGGLHHAKKFEASGFCYVNDIVIGILELLKYHPRVLYIDIDIHHGDGVQEAFYLTDRVMTVSFHKYGNYFFPGTGDMYEVGAESGRYYCLNVPLRDGIDDQSYKHLFQPVINQVVDFYQPTCIVLQCGADSLGCDRLGCFNLSIRGHGECVEYVKSFNIPLLVLGGGGYTVRNVARCWTYETSLLVEEAISEELPYSEYFEYFAPDFTLHPDVSTRIENQNSRQYLDQIRQTIFENLKMLNHAPSVQIHDVPADLLTYDRTDEADAEERGPEENYSRPEAPNEFYDGDHDNDKESDVEI

Variants of: B1
Settings: with hdac1_human HDAC1, Q13547
Sequence of hdac1_human HDAC1, Q13547 (Q13547 whole entry): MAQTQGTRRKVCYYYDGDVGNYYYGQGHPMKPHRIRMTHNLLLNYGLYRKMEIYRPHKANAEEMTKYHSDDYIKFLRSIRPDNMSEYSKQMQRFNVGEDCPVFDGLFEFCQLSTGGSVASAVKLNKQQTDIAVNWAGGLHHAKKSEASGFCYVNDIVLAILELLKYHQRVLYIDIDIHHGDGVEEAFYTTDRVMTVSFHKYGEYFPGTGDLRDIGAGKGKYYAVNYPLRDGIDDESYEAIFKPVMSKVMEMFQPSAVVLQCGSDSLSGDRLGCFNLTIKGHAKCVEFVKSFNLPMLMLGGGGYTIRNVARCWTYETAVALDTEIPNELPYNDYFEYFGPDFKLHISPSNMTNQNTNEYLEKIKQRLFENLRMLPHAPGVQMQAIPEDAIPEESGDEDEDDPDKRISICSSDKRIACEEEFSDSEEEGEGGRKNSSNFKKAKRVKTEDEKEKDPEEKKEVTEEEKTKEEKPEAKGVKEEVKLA

Variant | effect of a mutation on the interaction
MAKTVAYFYDPDVGNFHYGAGHPMKPHRLALTHSLVLHYGLYKKMIVFKPYQASQHDMCRFHSEDYIDFLQRVSPTNMQGFTKSLNAFNVGDDCPVFPGLFEFCSRYTGASLQGATQLNNKICDIAINWAGGLQHAKKFEASGFCYVNDIVIGILELLKYHPRVLYIDIDIHHGDGVQEAFYLTDRVMTVSFHKYGNYFFPGTGDMYEVGAESGRYYCLNVPLRDGIDDQSYKHLFQPVINQVVDFYQPTCIVLQCGADSLGCDRLGCFNLSIRGHGECVEYVKSFNIPLLVLGGGGYTVRNVARCWTYETSLLVEEAISEELPYSEYFEYFAPDFTLHPDVSTRIENQNSRQYLDQIRQTIFENLKMLNHAPSVQIHDVPADLLTYDRTDEADAEERGPEENYSRPEAPNEFYDGDHDNDKESDVEI [H134Q] | with no effect
